Tests used:
[1] = biological target: human insulin receptor extracellular domain (HIR ECD) (human) (UniProt P06213); experiment: ELISA, HIR ECD plated (second experiment)
[2] = biological target: human insulin receptor extracellular domain (HIR ECD) (human) (UniProt P06213); experiment: ELISA, HIR ECD plated; compared with the HIR Ab

- EC50 [1]: 4.8 nM
- reduction in receptor binding affinity against the HIR Ab [2]: 95%
Substance: GUSB-HIR Ab fusion protein (human GUSB fused to the amino terminus of the HIR Ab heavy chain) (from UniProt P08236 23-633) (antibody)

Reference: US20150064184A1
